Molecular target: T1, Toscana virus nucleoprotein (Toscana virus, UniProt P21701)
T1 construct: Nucleoprotein (N) of Toscana virus, coded by the S segment; Monomeric fractions of N were pooled for complex formation; also called TOSV N; N protein; source: E. coli, purified under non-denaturing conditions (1 M NaCl and 3 M urea in the lysis buffer to remove nucleic acids)
Test: crystal structure; N–VHH complex at 13 mg/ml, hanging drop, 293 K, 0.5 M MES pH 6.5, 25% PEG 2000; space group P4(1)2(1)2, 3.8 Å
Conditions: both partners purified

T1 sequence (P21701 2-253): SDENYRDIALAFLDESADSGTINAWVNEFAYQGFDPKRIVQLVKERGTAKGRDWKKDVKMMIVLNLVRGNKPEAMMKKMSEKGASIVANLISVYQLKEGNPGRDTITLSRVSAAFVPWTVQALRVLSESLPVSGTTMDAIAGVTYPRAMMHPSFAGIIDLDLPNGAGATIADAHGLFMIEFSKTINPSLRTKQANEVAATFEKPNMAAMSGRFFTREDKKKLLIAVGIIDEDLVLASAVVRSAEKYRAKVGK

B1: single-chain camelid antibody (VHH) targeting the TOSV N protein (VHH)
VHH: QVQLVESGGGSVQAGGSLRLSCAASGDAGRRYCMAWFRQAPGKEREGVAFISTANGRTDYVDSVKGRFTISQNSAKNTVYLQMNSLKPEDTAMYYCASRGYGYLSCSSYSLAAYNYWGQGTQVTVSS
notes: Selected by phage display from a llama immunised with TOSV N; The clone has no printed name; also called nanobody; source: E. coli WK6, periplasmic extract, purified (IMAC)
binding result: binds
